Assay results published in the supplement of paper PMC5998384.

Tests used:
HeLa Kyoto [1] = assay: solubility in G1/S (NP-40 vs SDS abundance) (log2 ratio); higher = more soluble; settings: cell cycle stage: G1/S
HeLa Kyoto [2] = assay: melting temperature (median over replicates), in situ; higher = more thermally stable
HeLa Kyoto [3] = assay: solubility change mitosis vs G1/S (difference of NP-40 vs SDS log2 ratios) (log2 ratio difference); higher = more soluble in mitosis
HeLa Kyoto [4] = assay: thermal stability score vs G1/S (z-score of summed log2 fold changes over temperatures); higher = more thermally stable than in G1/S
[5] = cell cycle stage: early G1 (4.5 h after nocodazole release)
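Throughout, for melting temperature (median over replicates), in situ: HeLa Kyoto cells synchronized by double thymidine or nocodazole block, proteins quantified by TMT10plex mass spectrometry, three independent biological replicates.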
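Throughout, for solubility change mitosis vs G1/S (difference of NP-40 vs SDS log2 ratios): synchronized HeLa Kyoto cells (double thymidine block for G1/S, nocodazole release for mitosis), protein amounts in NP-40 versus SDS lysates quantified by mass spectrometry, three biological replicates.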
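Throughout, for solubility in G1/S (NP-40 vs SDS abundance): HeLa Kyoto cells arrested at G1/S by double thymidine block, proteins quantified by TMT10plex mass spectrometry in mild NP-40 versus SDS extracts, three biological replicates.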
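Throughout, for thermal stability score vs G1/S (z-score of summed log2 fold changes over temperatures): synchronized HeLa Kyoto cells, proteins quantified by TMT10plex mass spectrometry, three biological replicates, mitosis taken 0.5 h after nocodazole release, G1/S directly after double thymidine block.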

Row | Substance | solubility in G1/S (log2) (HeLa Kyoto [1]) | melting temperature (HeLa Kyoto [2]; cell cycle stage: G1/S) | melting temperature (HeLa Kyoto [2]; cell cycle stage: mitosis) | solubility change mitosis (log2) (HeLa Kyoto [3]) | thermal stability score (HeLa Kyoto [4]; [5]) | thermal stability score (HeLa Kyoto [4]; cell cycle stage: mitosis)
1 | MAASLRLLGAASGLRYWSRRLRPAAGSFAAVCSRSVASKTPVGFIGLGNMGNPMAKNLMKHGYPLIIYDVFPDACKEFQDAGEQVVSSPADVAEKADRIITMLPTSINAIEAYSGANGILKKVKKGSLLIDSSTIDPAVSKELAKEVEKMGAVFMDAPVSGGVGAARSGNLTFMVGGVEDEFAAAQELLGCMGSNVVYCGAVGTGQAAKICNNMLLAISMIGTAEAMNLGIRLGLDPKLLAKILNMSSGRCWSSDTYNPVPGVMDGVPSANNYQGGFGTTLMAKDLGLAQDSATSTKSPILLGSLAHQIYRMMCAKGYSKKDFSSVFQFLREEETF [HIBADH] | 0.469 | 55.4 °C | 56.9 °C | -0.0734 | 0.844 | -0.199
2 | MAAFSKYLTARNSSLAGAAFLLLCLLHKRRRALGLHGKKSGKPPLQNNEKEGKKERAVVDKVFFSRLIQILKIMVPRTFCKETGYLVLIAVMLVSRTYCDVWMIQNGTLIESGIIGRSRKDFKRYLLNFIAAMPLISLVNNFLKYGLNELKLCFRVRLTKYLYEEYLQAFTYYKMGNLDNRIANPDQLLTQDVEKFCNSVVDLYSNLSKPFLDIVLYIFKLTSAIGAQGPASMMAYLVVSGLFLTRLRRPIGKMTITEQKYEGEYRYVNSRLITNSEEIAFYNGNKREKQTVHSVFRKLVEHLHNFILFRFSMGFIDSIIAKYLATVVGYLVVSRPFLDLSHPRHLKSTHSELLEDYYQSGRMLLRMSQALGRIVLAGREMTRLAGFTARITELMQVLKDLNHGKYERTMVSQQEKGIEGVQVIPLIPGAGEIIIADNIIKFDHVPLATPNGDVLIRDLNFEVRSGANVLICGPNGCGKSSLFRVLGELWPLFGGRLTKPERGKLFYVPQRPYMTLGTLRDQVIYPDGREDQKRKGISDLVLKEYLDNVQLGHILEREGGWDSVQDWMDVLSGGEKQRMAMARLFYHKPQFAILDECTSAVSVDVEGYIYSHCRKVGITLFTVSHRKSLWKHHEYYLHMDGRGNYEFKQITEDTVEFGS [ABCD3] | -0.213 | 52.5 °C | 52.3 °C | -0.103 | 1.37 | 0.619
3 | MKI67 | -1.82 | 49.4 °C | 52 °C | 1.29 | 5.66 | 0.979
4 | MAAGFGRCCRVLRSISRFHWRSQHTKANRQREPGLGFSFEFTEQQKEFQATARKFAREEIIPVAAEYDKTGEYPVPLIRRAWELGLMNTHIPENCGGLGLGTFDACLISEELAYGCTGVQTAIEGNSLGQMPIIIAGNDQQKKKYLGRMTEEPLMCAYCVTEPGAGSDVAGIKTKAEKKGDEYIINGQKMWITNGGKANWYFLLARSDPDPKAPANKAFTGFIVEADTPGIQIGRKELNMGQRCSDTRGIVFEDVKVPKENVLIGDGAGFKVAMGAFDKTRPVVAAGAVGLAQRALDEATKYALERKTFGKLLVEHQAISFMLAEMAMKVELARMSYQRAAWEVDSGRRNTYYASIAKAFAGDIANQLATDAVQILGGNGFNTEYPVEKLMRDAKIYQIYEGTSQIQRLIVAREHIDKYKN [ACADM] | 0.248 | 54.7 °C | 54.7 °C | -0.0323 | -1.04 | -2.26
5 | MATLITSTTAATAASGPLVDYLWMLILGFIIAFVLAFSVGANDVANSFGTAVGSGVVTLKQACILASIFETVGSVLLGAKVSETIRKGLIDVEMYNSTQGLLMAGSVSAMFGSAVWQLVASFLKLPISGTHCIVGATIGFSLVAKGQEGVKWSELIKIVMSWFVSPLLSGIMSGILFFLVRAFILHKADPVPNGLRALPVFYACTVGINLFSIMYTGAPLLGFDKLPLWGTILISVGCAVFCALIVWFFVCPRMKRKIEREIKCSPSESPLMEKKNSLKEDHEETKLSVGDIENKHPVSEVGPATVPLQAVVEERTVSFKLGDLEEAPERERLPSVDLKEETSIDSTVNGAVQLPNGNLVQFSQAVSNQINSSGHYQYHTVHKDSGLYKELLHKLHLAKVGDCMGDSGDKPLRRNNSYTSYTMAICGMPLDSFRAKEGEQKGEEMEKLTWPNADSKKRIRMDSYTSYCNAVSDLHSASEIDMSVKAEMGLGDRKGSNGSLEEWYDQDKPEVSLLFQFLQILTACFGSFAHGGNDVSNAIGPLVALYLVYDTGDVSSKVATPIWLLLYGGVGICVGLWVWGRRVIQTMGKDLTPITPSSGFSIELASALTVVIASNIGLPISTTHCKVGSVVSVGWLRSKKAVDWRLFRNIFMAWFVTVPISGVISAAIMAIFRYVILRM [SLC20A1] | -0.24 | – | 55.9 °C | -0.149 | 0.26 | -0.79
6 | MSSRKQGSQPRGQQSAEEENFKKPTRSNMQRSKMRGASSGKKTAGPQQKNLEPALPGRWGGRSAENPPSGSVRKTRKNKQKTPGNGDGGSTSEAPQPPRKKRARADPTVESEEAFKNRMEVKVKIPEELKPWLVEDWDLVTRQKQLFQLPAKKNVDAILEEYANCKKSQGNVDNKEYAVNEVVAGIKEYFNVMLGTQLLYKFERPQYAEILLAHPDAPMSQVYGAPHLLRLFVRIGAMLAYTPLDEKSLALLLGYLHDFLKYLAKNSASLFTASDYKVASAEYHRKAL [MORF4L2] | 0.0399 | 52.9 °C | 52.1 °C | 0.484 | 0.948 | 0.257
7 | MYYKFSGFTQKLAGAWASEAYSPQGLKPVVSTEAPPIIFATPTKLTSDSTVYDYAGKNKVPELQKFFQKADGVPVYLKRGLPDQMLYRTTMALTVGGTIYCLIALYMASQPKNK [COX7A2L] | -0.0362 | 55.7 °C | 52.3 °C | 0.107 | -2.74 | -1.52
8 | MGDMANNSVAYSGVKNSLKEANHDGDFGITLAELRALMELRSTDALRKIQESYGDVYGICTKLKTSPNEGLSGNPADLERREAVFGKNFIPPKKPKTFLQLVWEALQDVTLIILEIAAIVSLGLSFYQPPEGDNALCGEVSVGEEEGEGETGWIEGAAILLSVVCVVLVTAFNDWSKEKQFRGLQSRIEQEQKFTVIRGGQVIQIPVADITVGDIAQVKYGDLLPADGILIQGNDLKIDESSLTGESDHVKKSLDKDPLLLSGTHVMEGSGRMVVTAVGVNSQTGIIFTLLGAGGEEEEKKDEKKKEKKNKKQDGAIENRNKAKAQDGAAMEMQPLKSEEGGDGDEKDKKKANLPKKEKSVLQGKLTKLAVQIGKAGLLMSAITVIILVLYFVIDTFWVQKRPWLAECTPIYIQYFVKFFIIGVTVLVVAVPEGLPLAVTISLAYSVKKMMKDNNLVRHLDACETMGNATAICSDKTGTLTMNRMTVVQAYINEKHYKKVPEPEAIPPNILSYLVTGISVNCAYTSKILPPEKEGGLPRHVGNKTECALLGLLLDLKRDYQDVRNEIPEEALYKVYTFNSVRKSMSTVLKNSDGSYRIFSKGASEIILKKCFKILSANGEAKVFRPRDRDDIVKTVIEPMASEGLRTICLAFRDFPAGEPEPEWDNENDIVTGLTCIAVVGIEDPVRPEVPDAIKKCQRAGITVRMVTGDNINTARAIATKCGILHPGEDFLCLEGKDFNRRIRNEKGEIEQERIDKIWPKLRVLARSSPTDKHTLVKGIIDSTVSDQRQVVAVTGDGTNDGPALKKADVGFAMGIAGTDVAKEASDIILTDDNFTSIVKAVMWGRNVYDSISKFLQFQLTVNVVAVIVAFTGACITQDSPLKAVQMLWVNLIMDTLASLALATEPPTESLLLRKPYGRNKPLISRTMMKNILGHAFYQLVVVFTLLFAGEKFFDIDSGRNAPLHAPPSEHYTIVFNTFVLMQLFNEINARKIHGERNVFEGIFNNAIFCTIVLGTFVVQIIIVQFGGKPFSCSELSIEQWLWSIFLGMGTLLWGQLISTIPTSRLKFLKEAGHGTQKEEIPEEELAEDVEEIDHAERELRRGQILWFRGLNRIQTQIRVVNAFRSSLYEGLEKPESRSSIHNFMTHPEFRIEDSEPHIPLIDDTDAEDDAPTKRNSSPPPSPNKNNNAVDSGIHLTIEMNKSATSSSPGSPLHSLETSL [ATP2B1] | -0.179 | 54.1 °C | 53.4 °C | -0.103 | 0.336 | 1.72
